# Target: WDR5-RbBP5-Ash2L subcomplex (UniProt P61964)
substance,measurement,value
MLL^3745(R3765A),H3K4 dimethylation activity of the MLL1 core complex (MALDI-TOF mass spectrometry),a loss of H3K4 dimethylation activity of the MLL1 core complex when Arg-3765 of the MLL1 component is replaced by an alanine

# From US20130203167
